How the values were obtained:
Test in all cases: Subtype selectivity, FACS binding, transfected CHO-K1 cells
Assay type in all cases: cell-based
hASIC1b = target: T1, hASIC1b (Homo sapiens, UniProt P78348)
T1 construct: expressed in transfected cells; host or cells: CHO-K1, transient
T1 sequence (P78348 1-562 isoform P78348-3): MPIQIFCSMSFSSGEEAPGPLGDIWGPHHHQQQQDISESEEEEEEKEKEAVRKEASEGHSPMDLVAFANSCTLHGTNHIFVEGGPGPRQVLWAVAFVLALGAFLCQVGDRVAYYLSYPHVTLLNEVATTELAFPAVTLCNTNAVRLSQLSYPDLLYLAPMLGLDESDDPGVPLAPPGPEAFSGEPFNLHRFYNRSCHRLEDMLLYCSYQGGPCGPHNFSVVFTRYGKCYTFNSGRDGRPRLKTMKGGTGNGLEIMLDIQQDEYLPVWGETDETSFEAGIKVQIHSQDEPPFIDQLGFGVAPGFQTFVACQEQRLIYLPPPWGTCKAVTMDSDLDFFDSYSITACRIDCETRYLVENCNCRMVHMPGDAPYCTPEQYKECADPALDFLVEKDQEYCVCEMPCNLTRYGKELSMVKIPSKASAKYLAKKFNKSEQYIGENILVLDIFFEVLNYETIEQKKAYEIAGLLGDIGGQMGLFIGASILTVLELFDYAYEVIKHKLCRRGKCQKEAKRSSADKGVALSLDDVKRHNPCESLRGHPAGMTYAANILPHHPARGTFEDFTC
Description: (§1) To test the species and subtype selectivity of ASC06-IgG1, vectors encoding human ASIC1b-eYFP fusion, rat ASIC1a-eYFP fusion, mouse ASIC1a-eYFP fusion, hASIC2a-eYFP fusion, hASIC2b-eYFP fusion, and hASIC3a-eYFP fusion were constructed. The CHO-K1 cells were transiently transfected with these plasmids. FACS binding assay and immunocytochemistry (ICC) were carried out to determine if ASC06-IgG1 is able to bind to the cell surface-expressed ASIC homologs and isotypes.

hASIC2a/2b = target: T2, hASIC2a/2b (Homo sapiens, UniProt Q16515)
T2 construct: expressed in transfected cells; host or cells: CHO-K1, transient
T2 sequence (Q16515 1-512): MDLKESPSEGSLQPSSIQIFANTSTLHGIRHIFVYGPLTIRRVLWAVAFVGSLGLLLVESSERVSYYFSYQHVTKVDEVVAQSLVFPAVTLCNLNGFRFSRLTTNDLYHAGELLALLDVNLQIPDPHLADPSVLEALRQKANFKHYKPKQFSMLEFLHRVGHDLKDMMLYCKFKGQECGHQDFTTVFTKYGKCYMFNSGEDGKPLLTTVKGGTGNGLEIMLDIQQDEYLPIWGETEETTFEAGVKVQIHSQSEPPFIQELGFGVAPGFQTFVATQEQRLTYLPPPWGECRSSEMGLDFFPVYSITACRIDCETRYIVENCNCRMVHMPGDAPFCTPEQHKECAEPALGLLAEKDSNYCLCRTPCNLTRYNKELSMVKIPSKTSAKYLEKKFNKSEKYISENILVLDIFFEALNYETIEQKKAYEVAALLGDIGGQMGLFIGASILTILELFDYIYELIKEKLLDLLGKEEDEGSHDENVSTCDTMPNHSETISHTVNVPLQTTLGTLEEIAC
T2 sequence (Q16515 1-563 isoform Q16515-2): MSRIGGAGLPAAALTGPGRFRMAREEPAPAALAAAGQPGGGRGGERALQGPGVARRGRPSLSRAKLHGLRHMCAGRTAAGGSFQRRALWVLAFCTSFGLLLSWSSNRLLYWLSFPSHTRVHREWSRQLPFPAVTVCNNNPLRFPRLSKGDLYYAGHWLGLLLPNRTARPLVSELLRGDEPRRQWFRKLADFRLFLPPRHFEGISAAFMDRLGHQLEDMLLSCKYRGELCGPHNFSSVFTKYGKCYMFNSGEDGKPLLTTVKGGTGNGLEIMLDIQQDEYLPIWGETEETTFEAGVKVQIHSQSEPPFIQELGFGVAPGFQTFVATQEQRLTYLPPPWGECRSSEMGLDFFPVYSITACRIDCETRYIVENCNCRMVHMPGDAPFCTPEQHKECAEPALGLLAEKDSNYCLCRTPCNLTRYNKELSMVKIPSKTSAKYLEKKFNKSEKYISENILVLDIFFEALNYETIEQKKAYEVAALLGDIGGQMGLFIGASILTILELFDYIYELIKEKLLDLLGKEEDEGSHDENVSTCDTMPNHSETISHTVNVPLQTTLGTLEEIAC
Description: as §1

hASIC3a = target: T3, hASIC3a (Homo sapiens, UniProt Q9UHC3)
T3 construct: expressed in transfected cells; host or cells: CHO-K1, transient
T3 sequence (Q9UHC3 1-531): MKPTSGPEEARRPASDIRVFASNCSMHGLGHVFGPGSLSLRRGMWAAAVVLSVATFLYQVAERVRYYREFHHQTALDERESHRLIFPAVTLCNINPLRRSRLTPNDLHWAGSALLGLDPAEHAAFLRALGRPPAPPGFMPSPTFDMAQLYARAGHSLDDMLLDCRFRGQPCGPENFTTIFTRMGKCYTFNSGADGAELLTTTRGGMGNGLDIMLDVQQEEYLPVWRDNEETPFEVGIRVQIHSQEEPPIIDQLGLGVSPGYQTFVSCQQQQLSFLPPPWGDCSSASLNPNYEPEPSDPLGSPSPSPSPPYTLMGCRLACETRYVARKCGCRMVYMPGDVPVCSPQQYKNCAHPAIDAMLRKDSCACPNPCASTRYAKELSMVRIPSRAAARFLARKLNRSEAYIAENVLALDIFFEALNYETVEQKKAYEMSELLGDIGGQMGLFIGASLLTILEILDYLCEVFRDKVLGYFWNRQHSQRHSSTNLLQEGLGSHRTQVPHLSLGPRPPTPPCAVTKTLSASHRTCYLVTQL
Description: as §1

B1: ASC06-IgG1: ASC06 antibody converted into a full length IgG1 form (antibody, V domains shown)
VH: QVQLQQSGGGLVQPGGSLRLSCAASGFTFSSYAMSWVRQAPGKGLEWVSAISGSGGSTYYADSVKGRFTISRDNSKNTLYLQMNSLRAEDTAVYYCAKDSFYGYSKGDWGQGTLVTVSS
VL: QSALTQPASVSGSPGQSITISCTGTSSDVGAYNYVSWYQQQPGKAPKLMIYGVSNRPSGVSNRFSGSKSGNAASLTISGLQAEDEADYYCSSYTSSSTYVFGTGTKLTVLG
not: FACS recognition of hASIC1b (hASIC1b) | FACS recognition of hASIC2a/2b (hASIC2a/2b) | FACS recognition of hASIC3a (hASIC3a)

Reference: patent US12692310B2, “ASIC1 channel antagonist antibody” (ShanghaiTech University, priority 2019, dated 2026)
